Target: spike, depending on domain and variant
Experiment: ELISA

Chain of LRRC15-Fc (Q8TF66 22-538): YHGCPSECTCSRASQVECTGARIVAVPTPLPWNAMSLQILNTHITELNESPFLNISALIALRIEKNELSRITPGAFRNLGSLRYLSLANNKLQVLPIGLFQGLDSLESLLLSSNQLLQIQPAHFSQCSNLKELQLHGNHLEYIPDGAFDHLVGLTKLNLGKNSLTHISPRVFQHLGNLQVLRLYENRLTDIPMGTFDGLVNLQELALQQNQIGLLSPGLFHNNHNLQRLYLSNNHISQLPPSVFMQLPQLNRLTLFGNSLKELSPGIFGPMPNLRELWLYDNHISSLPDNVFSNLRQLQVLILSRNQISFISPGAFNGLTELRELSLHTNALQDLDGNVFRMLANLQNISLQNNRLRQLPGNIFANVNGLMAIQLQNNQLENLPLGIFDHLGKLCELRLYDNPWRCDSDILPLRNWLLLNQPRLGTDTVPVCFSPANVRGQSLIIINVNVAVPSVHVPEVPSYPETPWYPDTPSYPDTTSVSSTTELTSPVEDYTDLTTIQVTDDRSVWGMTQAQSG

LRRC15-Fc (from UniProt Q8TF66) (Fc fusion)
Kd: 43 to 148 nM
